Source: the supplement of paper PMC9942255

System: Bacillus subtilis DB104 (SP-AmyQ fusion secretion)
Experiment: AmyQ secretion efficiency, weighted average sort bin (1 = best secretion, 10 = worst) (bin number (weighted average, 1-10)); higher = lower secretion efficiency
In short: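 A B. subtilis DB104 library carrying amyE-integrated fusions of designed signal peptides to mature AmyQ was encapsulated at about 0.3 cells per ~65 nL alginate bead with fluorescein-starch and grown about 13 h at room temperature. Following nile red staining, occupied beads were flow-sorted as large particles into 10 equally populated bins by green/red fluorescence ratio, and the bin amplicons were Illumina-sequenced. The secretion score is the read-frequency-weighted average bin number normalised to beads per bin, leaving out low-abundance sequences.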

Sequence | AmyQ secretion efficiency
MNFKKTVVSALSISALALTVTSISVSGVASAHEI | 3.48
MTKKARKLPLVCVLLISGWLAPAASASAQTT | 1.96
MKKTIMSFVAVAALSTTAFKRRHASAKEI | 7.04
MLCVMMLLFSAIASFPVSAQSKDQ | 5.6
MKLWMRKTLVVLFTIVTFGLVVPPAALMADKP | 2.83
MKKRLIAPMLLSAASLAFFAMSGSAQYAAY | 6.56
MLCVMMLLFSAIASFPVSWQAKDQ | 6.99
MRSYIKVRRRCRRRLILFVPTALADNS | 6.04
MRKSLITLGLASVIGTKASAETL | 5.6
MNLRKILLSSALSLGMLVSAAPGLATSS | 3.12
MKRIRIPMTLALGAALTIAPLDKASAEEN | 3.1
MKKLILAGIALFVFISPLKSHKT | 5.8
MKKRITYSTSYQQTRVAFAFTDSSKAKAAEA | 6.55
MKKKQVMLALTAAAGLGLTALVFFHSAPAAKAAPL | 2.39
MKKRLIGFLVLVPALIMSGITLIEANPY | 7.07
MKKLFIFSAILTLSIFAPNETFAQTA | 2.72
MKKVLMAFIICLSLILSVLAAPPSGAKAASV | 1.88
MIIWIYVVLVLSIAGIGGFSVHAASS | 7.11
MRNLTKTSLLLAGLCTAAQMVFVTHASSEES | 4.13
MTVPKTMLLSTAAGLLLSLTATSVSAHYV | 6.58
MRMLWRSLALCGLALTLAPCAQIAEP | 6.42
MKKRFSLIMMFILLFMLMSPAFAAEK | 3.79
MRPVFPLILSAVLFLSCFFGARQTEASTSKR | 2.25
MLKKKWMVGLLAGCLAAGGFSYNAFATKK | 4.27

Sequence | AmyQ secretion efficiency
MKKRLIAPMLLSAASLAFFAMSGSAQAAAR | 4.69
MKKKIVAGLAVSAGSSMAAAPAEAKTI | 7.16
MLKKKWMLMVGLLAGCLAAGGFSYNAFATEN | 4.46
MKKRLIAPMLLSAASLAFFAMSGSQQAAAY | 4.52
MKKRLIGFLVLVPALIMSGITLIEMNKK | 6.01
MRKKTKNRLISSVLSTVVISSLLFPGAAGCSSK | 5.98
MKQKRGRKACLILFSFTITTFINTETISAFSN | 3.84
MKRLLVSLRVWMVFLMNWVTPDRKTKAAAVY | 7.79
MKKKQVMLALTAAAGLGLTALHSAPAGKAAPL | 5.58
MRGKSAVLLSLIMLIAGFLISFPFQM | 5.95
MTSLMMLSMLTVMIASLFIFSSQALAVQY | 3.98
MKIRKILLSSALSFGMLISAVPALARKR | 5.61
MTTAAAVLLSLGLVFGFSYGAGHVAEAKTK | 2.82
MKVLLSALLLLLFAFEPSPSGKKL | 6.9
MTQFAITLSVLCALILLVPTLLVIPFQHNKEAGASV | 7.59
MKKRLIAPMLLSAASLAFFAMSGSAQCAAY | 6
MNILLILLSSALSFGMLISAVPALAAGT | 2.56
MRMLWRSLALCGLALTLAPCAQWAEP | 5.9
MKIRKIRRRKALSFGMLISAVPALAAGT | 5.54
MKKKQVMLALTAAAGLGLTALHSAPAAKADDD | 5.2
MRPVFPLILSAVLFLSCFFGARQTEASASED | 3.13
MKKGIIRFLLVSFVLFFALSTGITGVQYAPA | 4.56
MKRKLLSSLAISALSLGLLVRKRTASFAAES | 6.75
MYKKFVPFAVFLFLFFVSFRKMRNPHALDY | 6.42

Sequence | AmyQ secretion efficiency
MNKKYFVLIVCIIFTSALFPTFSSVTCAQG | 1.06
MKKRFFGPIILAFILFAGAIHIPS | 5.21
MNLLFNLSMLTVMIASVFIFSSHALAAQY | 2.94
MRSYIKVLTMCFLGLILFVPTALAEEE | 2.15
MPYLKRVLLLLVTGLFMSLFAVTATMSAQTG | 1.29
MKRITINSNFSNIITMFIAAAVISLTGTAEAAEK | 3.07
MSLNKRVSMFLVALTMCGGLFVTPAKAVKT | 2.92
MKLAKRVSALTPSTTLAITIKAKEL | 8.5
MKKAAAVLLSLGLVFIFVFAAVHVAEAKTK | 2.59
MRSYIKVLTMCFLGLILFVPTQLADNS | 5.96
MKWMCSICCAAVLLAGGAQQAEAV | 2.93
MKWMCSICCAAVLLAGGAWQAEAV | 3.41
MSSMTCKLVVSVTLFFSFLTIGPLAHAQNS | 1.57
MRFTKVVGFLSVLGLAAKKKLTAQAEKA | 7.51
MKKTIMSFVAVAALSTTAFGAHVSAKEI | 2.83
MRPVFPLILSAVLFLSCFFGARQTEVSASKR | 2.58
MKLAKRVSALTPSTTLAITAKAARK | 7.54
MTKWIVLFLVLIAAAISIFVYVSTGSEK | 2.48
MKNMSCKLVVSVTLFFSFLTIGPLTHAQNS | 1.52
MKRMIVRMTLPLLIVCLAFSSFSASARAASF | 1.55
MLLNLAAGLTASAIVGTTLVVTPAEAATI | 6.11
MKKKQVMLALTAAAGLGLTALHSAPALKAAPL | 4.89
MLKKKWMVGLLAGCLAAGGFSYNSPPFFFGAAFATEN | 5.86
MKVPKTMLLSTAAGLLLSLTATSVSAHYK | 5.14

Sequence | AmyQ secretion efficiency
MLCVMMLLFSAIASFPVSNQAKDQ | 5.37
MKRKLLSSLAISALSLGLLVSAPTASFARKR | 3.11
MKKIGLLFMLCLAALFTIGFPAQQADAEED | 2.27
MKRRKTAYLLLGILCSAAVFLIGAPSRALGAEV | 2.77
MFNRLFRVCFLAALIMAFTLPNSVYTQKP | 4.86
MKVLLSALLLLLFAFEPSASMKKL | 6.8
MMKKLFHSTLIVLLFFSFFGVQPCHAKKQ | 1.69
MKWCSICCAAVLLAGGAAQAEAV | 3.57
MLCVMMLLFSAIASFPVSAQNKDQ | 6.98
MKKAAAVLLSLGLVFDKGYEPGHVAEAKTK | 2.85
MRKKRGYRCGMAASLTLGSLLPAGYASAKED | 6.63
MRGKSAVLLSLIMLIAGFLIPFSFQM | 7.72
MKKAFILSAAAAVGLFTFTSVVGASAKEL | 4.32
MSKWMITIAMLILAGIALFVFISPLKSHKT | 5.71
MKKVLMAFIICLSLILSVLAAAKAESV | 4.23
MKSLPYTIALLFCGLIIVSMAAKGKKR | 7.49
MKRFSTAYLLLGILCSAAVFLIGAPSSALGAEV | 3.5
MKKRKRRNFKRFIAAFLVLALMIDVLAKST | 7.65
MTMLRKIIGWILLLCIIPLFAFTVIASGAED | 6.01
MKVLLSALLLLLFAFEPSASTKKL | 5.63
MKKTIMSFVAVAALSTTAFGAHSSAKEI | 3.37
MMKKLFHSTLRKLLFFSFFGVQPIHAKKQ | 7.14
MGLGKKLSVAVAASFMSLSISLPGVQAAED | 2.84
MRSYIKVLTMCFLGLILFVPTPLADNS | 5.93
